In IntAct's records for PubMed 25225338:

Biological target: mare1_human MAPRE1 (UniProt Q15691)
Sequence (Q15691 whole entry): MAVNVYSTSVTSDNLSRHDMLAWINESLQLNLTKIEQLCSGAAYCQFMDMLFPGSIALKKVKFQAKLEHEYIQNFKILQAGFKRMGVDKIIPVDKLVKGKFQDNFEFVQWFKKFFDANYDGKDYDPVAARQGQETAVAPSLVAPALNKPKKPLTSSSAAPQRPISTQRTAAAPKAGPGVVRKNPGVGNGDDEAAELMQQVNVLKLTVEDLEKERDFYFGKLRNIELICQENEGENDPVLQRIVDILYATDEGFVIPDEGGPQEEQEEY

Substance: Desmoplakin (Homo sapiens), P15924-2 I533T
- effect of a mutation on the interaction: decreasing interaction strength

Substance: Desmoplakin (Homo sapiens), P15924-2 N458Y
- effect of a mutation on the interaction: decreasing interaction strength
